Results from patent US20250205362A1, “LIPID NANOPARTICLES” (NATIONAL UNIVERSITY CORPORATION HOKKAIDO UNIVERSITY, priority 2022, published 2025).

What was measured:
[1] = Encapsulation rate of lipid nanoparticles (Ribogreen); type: physicochemical
Experimental: The encapsulation rate of the lipid nanoparticles was calculated by measuring the amount of encapsulated nucleic acid (the amount of ssODN in the case of RNP-ssODN) using an RNA intercalator Ribogreen (manufactured by Life Technologies).

[2] = system: TTR gene; experiment: Measurement of TTR-KO activity (serum TTR protein, ELISA); type: in vivo, mouse
In short: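 Female BALB/c mice (4 weeks) received Cas9/sgTTR-RNP-loaded lipid nanoparticles i.v. at the indicated doses. Serum TTR protein measured by ELISA one week later. TTR-KO activity expressed as serum TTR (%) relative to untreated mice set at 100%.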

[3] = Average particle diameter, PdI and zeta potential of lipid nanoparticles (dynamic light scattering); type: physicochemical
Experimental: The mean particle diameter (number average value), ζ-mean particle diameter, and polydispersity index (PdI) of the lipid nanoparticles in PBS(−) (pH 7.4), as well as the zeta potential in 10 mM HEPES buffer (pH 7.4), were measured using an analyzing device, Zetasizer Nano ZS ZEN3600 (Malvern), which utilizes dynamic light scattering.

[4] = system: BALB/c mice; experiment: Measurement of Fluc activity in tissues after iv Fluc mRNA-loaded lipid nanoparticles; type: in vivo, mouse; conditions: Example 1, FIG. 1; Fluc mRNA-loaded LNP 50/10/40/1.5; Balb/c mice iv 0.01 mg mRNA/kg, 6 hours
Experimental: First, lipid nanoparticles encapsulating Fluc mRNA (Fluc mRNA-loaded lipid nanoparticles) were intravenously injected into BALB/c mice (female, 4 weeks old) at a dose of 0.01 mg mRNA/kg body weight. Six hours after intravenous injection, the mice were euthanized, and each tissue was collected, frozen in liquid nitrogen, and stored at −80° C. The tissues were homogenized in passive lysis buffer (Promega) using a bead cell disrupter (Micro Smash MS-100R, TOMY Seiko). Tissue debris was removed by centrifugation and the supernatant was collected. Fluc activity in the supernatant was measured using a luciferase assay system (E1500, Promega) according to the manufacturer's protocol. Luminescence was measured using a luminometer (Luminescencer-PSN, ATTO). The protein concentration was determined using a commercially available measurement kit (BCA Protein Assay Kit, Pierce). Fluc activity was expressed as relative light units (RLU) per mg of protein.

[5] = pKa of lipid nanoparticles (TNS); conditions: apparent pKa of Fluc mRNA-loaded LNP; 50/10/40/1.5 mol%; Table 5
Experimental: The pKa of the lipid nanoparticles was measured using p-Toluenesulfonic acid (TNS). First, TNS (final concentration: 0.75 μM) and lipid nanoparticles (final concentration: 30 μM) were mixed in buffer solutions (200 mL) adjusted to various pH values (pH 3.5 to 9.5). The buffer solutions used were: 20 mM citrate buffer solution, 20 mM sodium phosphate buffer solution, or 20 mM Tris-HCl buffer solution containing 130 mM NaCl. The fluorescence intensity of the prepared mixture was measured using a spectrofluorometer (VarioskanLux, Thermo Fisher Scientific) at the setting of λex=321 nm and λem=447 nm. The highest and lowest measured values were taken as 100% and 0% charge rate, respectively, and the pH showing a 50% charge rate was calculated as the apparent pKa. The percentage of the contained cationically charged pH-sensitive cationic lipid was calculated using the Henderson-Hasselbalch equation.

[6] = Evaluation of biodistribution (fluorescently labeled RNP-ssODN); type: in vivo, mouse; conditions: mice iv 2 mg RNP/kg, 1 hour; labeled TTR-RNP-ssODN in CL4H6 LNP (ssODN(−): free RNP, no LNP)
Experimental: For fluorescent labeling of lipid nanoparticles, the RNP-ssODN solution described above was mixed with a three-fold molar amount of a fluorescent molecule (DyLight 650 NHS ester) in DMSO and incubated for 30 min at ambient temperature in the dark. Unreacted fluorescent molecules were removed by ultrafiltration (Amicon Ultra-0.5, MWCO 3 kDa, Millipore).
Lipid nanoparticles encapsulating the obtained fluorescently labeled RNP-ssODN (fluorescently labeled RNP-ssODN-loaded lipid nanoparticles) were intravenously injected into BALB/c mice (female, 4 weeks old) at 2 mg RNP/kg body weight. One hour after intravenous injection, the mice were euthanized and various tissues, including blood, were collected. The collected blood was immediately diluted with 1% sodium dodecyl sulfate (SDS) solution. The collected tissues were immediately weighed and then homogenized in 1% sodium dodecyl sulfate (SDS) solution. The resulting homogenates were transferred to a black 96-well plate, and fluorescence was measured using a microplate reader (VarioskanLux, Thermo Fisher Scientific) at settings of λex=652 nm and λem=672 nm. Calibration curves were generated using fluorescently labeled RNP-ssODN-loaded lipid nanoparticles and blood or tissue homogenates similarly prepared from untreated mice. Biodistribution was expressed as the percentage of injected dose per tissue or blood (% injected dose).

[7] = system: dsDNA from the TTR locus; experiment: In vitro DNA cleavage activity; type: biochemical, mouse; conditions: n=3
Source text: Genomic DNA was collected and purified from BALB/c mouse liver tissue using a commercially available nucleic acid extraction kit (NucleoSpin Tissue, MACHEREY-NAGEL) according to the manufacturer's protocol.
The dsDNA from the TTR locus was amplified by PCR (using KAPA HiFi HotStart DNA polymerase (KAPA Biosystems)) using the genomic DNA as a template and the primer set shown in Table 4, and purified using a commercially available nucleic acid purification kit (ISOSPIN PCR Product, Nippon Gene).
The ssODN (5 equivalents relative to […]) was added to Cas9/sgTTR-RNP to form a TTR-RNP-ssODN complex. […] The reaction solution was then heated at 65° C. for 5 minutes to inactivate Cas9-RNP, and the dsDNA was then subjected to electrophoresis on a 3% agarose gel at 100 V for 40 minutes. After electrophoresis, the gel was stained (GelRed, Biotium) and visualized using a fluorescent/visible light gel imaging system (Printgraph CMOS I, ATTO). Bands were quantified using image analysis software (ImageJ).
DNA cleavage was calculated using the following formula: in the formula, Int_full and Int_cleaved indicate the intensities derived from full length (uncleaved) and cleaved DNA, respectively.

[8] = system: TTR gene; experiment: T7E1 assay on liver genomic DNA; type: in vivo, mouse; conditions: 2 mg RNP/kg iv two consecutive days, one week after final injection, CL4H6 LNP, n=3
Experimental: Lipid nanoparticles encapsulating TTR-RNP-ssODN complexes (TTR-RNP-ssODN-loaded lipid nanoparticles) were intravenously injected to BALB/c mice (female, 4 weeks old) at 2 mg RNP/kg body weight for two consecutive days. One week after the last injection, the mice were euthanized and liver tissues were harvested, flash frozen in liquid nitrogen, and stored at −80° C.
Genomic DNA was extracted and purified from the collected liver tissue using a commercially available nucleic acid extraction kit (NucleoSpin Tissue, MACHEREY-NAGEL) according to the manufacturer's protocol.
The T7E1 assay was performed using a commercially available genome editing detection kit (Alt-R®, Integrated DNA Technologies). The dsDNA treated with T7E1 was subjected to agarose gel electrophoresis in the same manner as in the above described <Measurement of In vitro DNA Cleavage Activity>, and the gel after electrophoresis was stained and the bands were quantified.

[9] = Fluc mRNA-loaded LNP, cationic lipid/DSPC/cholesterol/PEG-DMG 50/10/40/1.5 mol%, Table 5
[10] = TTR-RNP-ssODN-loaded LNP (ssODN-TTR_3-40%), cationic lipid/DSPC/cholesterol/PEG-DMG 50/10/40/3.5 mol%, Table 8
[11] = TTR-RNP-ssODN-loaded LNP, sgTTR-G211, CL4H6/DSPC/cholesterol/PEG-DMG 50/10/40/3.5 mol%, Table 11
[12] = TTR-KO activity in mice, TTR-RNP-ssODN-loaded LNP CL4H6/DSPC/cholesterol/PEG-DMG 50/10/40/3.5 mol%, sgTTR-G211 (TTR_3) or sgTTR-G269 (TTR_4)

Molecule: CCCCCC(CCCCC)CC(=O)OCCCCCCC(O)(CCCCCCOC(=O)CC(CCCCC)CCCCC)CCCCN(CCC)CCC [CL4F8-b-5, 7-(4-(dipropylamino)butyl)-7-hydroxytridecane-1,13-diylbis(3-pentyloctanoate)]
- Encapsulation rate [1, 9]: 91.0%
- Encapsulation rate [1, 10]: 60.2%
- serum TTR activity / gene knockout versus CL4F6 ([2]; FIG. 5, TTR-RNP-ssODN-loaded LNP, mouse serum 7 days after administration): lower serum TTR activity and higher gene knockout
- Number-average particle diameter [3, 9]: 68.7 nm
- PdI [3, 9]: 0.185
- ζ-average [3, 9]: 106.3 nm
- ζ-potential [3, 9]: −5.16 mV
- Number-average particle diameter [3, 10]: 127.5 nm
- PdI [3, 10]: 0.128
- ζ-average [3, 10]: 178.0 nm
- ζ-potential [3, 10]: −0.95 mV
- Fluc activity (gene transfer ability) in liver and spleen [4]: equal to or greater than that of CL4F6
- pKa [5]: 6.25

B1: ssODN-TTR_3-40%: ssODN pairing with sgTTR-G211, 40% matched; SEQ ID NO 7 (nucleic acid)
DNA: AAAAAAAAAAAAAAAAAAAAAAAAAAAAAAAAAAAAAAAAAAAAAAAAAAAAAAAAAAAAAAAGACGTGGAAAATTAAAAAAAAAAAAAAAAAAAAAAAAAAAAAAAAAAAAAAAAAAAAAAAAAAAAAAAA
- Encapsulation rate [1, 11]: 86.0%
- reduction of serum TTR protein concentration compared to untreated mice ([2]; 2 mg RNP/kg iv two consecutive days, one week after final injection, CL4H6 LNP): 81%
- serum TTR activity / gene knockout activity ([2]; FIG. 23, CL4H6 LNP prepared at 4° C., 2.0 mg RNP/kg, 7 days): low serum TTR activity, exhibiting sufficient gene knockout activity
- KO (%) 1st test [2, 12]: 47.8%
- KO (%) 2nd test [2, 12]: 56.5%
- TTR-KO activity (ranking among ssODNs) ([2]; Table 10, CL4H6 LNP, per sgRNA): highest TTR-KO activity
- Number-average particle diameter [3, 11]: 85.5 nm
- PdI [3, 11]: 0.094
- ζ-average [3, 11]: 120.1 nm
- ζ-potential [3, 11]: 2.54 mV
- ID %/tissue blood [6]: 7.57 ID %/tissue
- ID %/tissue kidney [6]: 0.14 ID %/tissue
- ID %/tissue liver [6]: 42.28 ID %/tissue
- ID %/tissue lung [6]: 0.26 ID %/tissue
- ID %/tissue spleen [6]: 3.49 ID %/tissue
- in vitro DNA cleavage activity ([7]; FIG. 7, TTR-RNP-ssODN, sgTTR-G211, 37° C. 30 min): about the same as that of TTR-RNP-ssODN containing ssODN-TTR_3-0%
- relative DNA cleavage activity at 37° C. ([7]; FIG. 22(A), sgTTR-G211 RNP, activity without ssODN = 100%): about the same as that of the RNP containing ssODN-TTR_3-0%
- relative DNA cleavage activity at 15° C. ([7]; FIG. 22(B), sgTTR-G211 RNP, activity without ssODN = 100%): higher than that of RNP containing ssODN-TTR_3-80%, but was clearly lower than that of RNP containing ssODN-TTR_3-0%
- KO activity at the DNA level [8]: 27%
